From article PMC3458034, “Structure and Flexibility of the C-Ring in the Electromotor of Rotary FoF1-ATPase of Pea Chloroplasts” (PLoS ONE, 2012)

Target: the molecule itself
Assay: crystal structure; c-ring from a native preparation in detergent; crystals grown in 100 mM Na-acetate pH 4.5, 50 mM MgCl2, 50 mM NaCl, 10 mM yttrium chloride, 14-24% PEG 550 MME; 3.4 Å

B1: chloroplast ATP synthase subunit-c of the green pea (Pisum sativum), as the c-ring (natural protein, UniProt P08212 1-81, looked up)
chain: MNPLIAAASVIAAGLAVGLASIGPGVGQGTAAGQAVEGIARQPEAEDKIRGTLLLSLAFMEALTIYGLVVALALLFANPFV
notes: ATP synthase (CFoCF1) subunit c of the chloroplast, Pisum sativum; each monomer is printed as an 81-residue hairpin-shaped polypeptide (TM1 residues 4-41, loop 42-45, TM2 46-75); Native preparation, no tags; Homo-tetradecameric ring in the crystal; also called c-subunit; c14; source: purified from thylakoid membranes of P. sativum var; Alaska young leaves (DDM, PEG precipitation, sucrose …)
- stoichiometry N: 14
